Earlier results, collected in publication PMC10280637.

Molecular target: IL-17A (Homo sapiens) (UniProt Q16552)
Sequence (Q16552 24-155): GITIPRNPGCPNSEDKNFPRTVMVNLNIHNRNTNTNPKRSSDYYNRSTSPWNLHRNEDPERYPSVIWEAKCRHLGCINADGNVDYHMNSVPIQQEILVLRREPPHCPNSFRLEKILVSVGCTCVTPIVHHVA

For Secukinumab, the Kd is listed as 0.06 nM.
